From patent US20240043504A1 (published 2024)
Where a chain is given by its changes, count along the chain named.

B1: mAb10998 (antibody, V domains shown)
VH: EVQLVESGGGLVHPGGSLRLSCAASGLTVSSNYMSWVRQAPGKGLEWVSVIYSGGSTYYADSVKGRFTISRHNSKNTLFLQMNSLRAEDTAVYYCARDRPITGTTLDVWGQGTTVTVSS
VL: DIQMTQSPSSLFASVGDRVTITCRASQSISSYLNWYQQKPGKAPKLLIYAASSLQSGVPSRFSGSGSGTDFTLTISSLQPEDFAFYYCQQTYSTPPITFGQGTRLEIK
B2: mAb10964 (antibody, V domains shown)
VH: QVQLQESGPGLVKPSETLSLTCTVSGGSINNYYWIWIRQPPGKGLEWIGYIYHSGSTNYNPSLKSRVTISVDTSKNQFSLKVSSVTAADTAVYYCANMVRGVYEDDYWGQGTLVTVSS
VL: DIQMTQSPSSLSASVGDRVTITCRASQSISNYLNWYQQKPGKAPKLLIFAASSLRSGVPSRFSGSGSGTDFTLTISSLHPEDFATYYCQQNYNTPLTFGPGTKVDIKR
B3: mAb10971 (antibody, V domains shown)
VH: EVQLVESGGGLIQPGGSLRLSCAASGVTVSSNYMSWVRQAPGKGLEWVSVIYSGGSTFYSDSVKGRFSISRDNSKNTLYLQMNSLRAEDTAVYYCARDLYYYGMDVWGQGTTVTVSS
VL: DIQLTQSPSFLSASVGDRVTITCRASQGISTYLAWYQQKPGKAPKLLIYAASTLQSGVPSRFSGSGSGTEFTLTISSLQPEDFATYYCQQLDSYPGLTFGGGTKVEIKR
B4: mAb10957 (antibody, V domains shown)
VH: B3 VH with I12V, S60A, S68T, Y79F, A87I, Y100G, Y101P
VL: B3 VL with T31S, E70Q, T72I, D92N, L97F, G101P, E106D
B5: mAb10956 (antibody, V domains shown)
VH: B3 VH with I12V, V27L, S60A, S68T, Y100I, Y101K
VL: not shown
B6: mAb10966 (antibody, V domains shown)
VH: EVQLVESGGGLVQPGGSLRLSCAASGLTVSSNYMSWVRQAPGKGLEWVSVIYSGGSTFYADSVKGRFTISRDNSKNTLYLQMNSLRPEDTAVYYCAREGRIAATGYGMDVWGQGTTVTVSS
VL: not shown
B7: mAb11004 (antibody, V domains shown)
VH: QVQLVESGGGVVQPGRSLRLSCVASGFTFSIYGMDWVRQAPGKGLEWVAVISYDGSNKYYADSVKGRFTISRDNSKNTLYLQMNSLRPEDTAVYYCAKDREAAADAFDIWGQGTMVTVSS
VL: DIQMTQSPSSVSASVGDRVTITCRASQGISSWLAWYQQKPGKAPKLLIYAASSLHSGVPSRFSGSGSGTDFTLTISSLQPEDFATYYCQQANSFRLTFGGGTKVEIK
B8: mAb10967 (antibody, V domains shown)
VH: EVQLVESGGGLVQPGGSLRLSCAASGFTVSSNYMSWVRQAPGKGLEWVSVIYPGGSTFYADSVKGRFTISRDNSKNTLYLQMNSLRAEDTAVYYCARDQRDFAWGQGTLVTVSS
VL: DIQMTQSPSSLSASVGDRVTITCQASQDISNYLNWYQQKPGKAPKLLIYDASNLETGVPSRFSGSGSGTDFTFTISGLQPEDIATYYCQQYDNLPPTFGQGTRLEIKR
B9: mAb10954 (antibody, V domains shown)
VH: EVQLVESGGGLVQPGGSLRLSCAASGITVSSNYMSWVRQAPGKGLEWVSLIYSGGSTYYADSVKGRFTISRDNSKNTLYLQMNSLRVEDTAVYYCARDHGMAAAGYNYWGQGTLVTVSS
VL: B8 VL with S30N, N31K, S76N, G77S, I83F, Y87F, T97A, R103K, L104V
B10: mAb11006 (antibody, V domains shown)
VH: EVQLVESGGGLVQPGGSLRLSCAASGFIVSRNYMSWVRQAPGKGLEWVSVIYSGGSTFYADSVKGRFTISRHNSKNTLYLQMNSLKAEDTAVYYCARELRGYFDYWGQGTLVTVSS
VL: DIQLTQSPSFLSASVGDRVTITCWASQGISSYLAWYQQKPGKAPKLLIYAASTLQSGVPSRFSGSGSGTEFTLTISSLQPEDFATYYCQLLNSYPYTFGQGTKLEIK
B11: mAb11008 (antibody, V domains shown)
VH: EVQLVESGGGLVQPGGSLRLSCAASGFTVSSNYMTWVRQAPGKGLEWVSVIYSGGSTFYADSVKGRFTISRHNSENTLYLQMNSLRAEDTAVYYCARDLAAAGTDYWGQGALVTVSS
VL: B10 VL with E81D, L90H, P95L

Legend:
[1] = target: SARS-CoV-2 (2019-nCoV) Spike Protein (S1 Subunit, Fc Tag) (Sino 40591-V02H) (SARS-CoV-2, UniProt P0DTC2 16-685); experiment: Luminex bead binding, supernatant
[2] = target: SARS-CoV-2 (2019-nCoV) Spike Protein (S1 Subunit, His Tag) (Sino 40591-V08H) (SARS-CoV-2, UniProt P0DTC2 16-685); experiment: Luminex bead binding, supernatant
[3] = target: SARS-CoV-2 Spike Protein (S1 Subunit, Fc Tag) (Sino 40591-V02H) (SARS-CoV-2, UniProt P0DTC2 16-685); experiment: Luminex, supernatant
[4] = target: SARS-CoV-2 Spike Protein (S1 Subunit, His Tag) (Sino 40591-V08H) (SARS-CoV-2, UniProt P0DTC2 16-685); experiment: Luminex, supernatant

Binder	Binding signal (MFI) [1] [MFI]	Binding signal (MFI) [2] [MFI]	MFI [3] [MFI]	MFI [4] [MFI]
B1	724	717	–	–
B2	–	–	18600	24200
B3	–	–	17000	21600
B4	–	–	8450	12000
B5	–	–	15000	20000
B6	–	–	16400	23300
B7	4480	9530	–	–
B8	–	–	15800	21900
B9	–	–	16600	21300
B10	2050	–	–	–
B11	6880	1420	–	–
